Data as given in patent US20200407436A1 (published 2020).
Where “and” joins values, the source holds several entries; their conditions need not be identical. Equal values may be shown once. Blank lines part the entries; values can stand above or below the binder they belong to.

How the values were obtained:
mature human TGF-beta 2 [1] = target: T1, mature human TGF-beta 2 (human, UniProt P61812 303-414); experiment: SPR Biacore T200, TGF-beta amine-coupled (~150 RU), Fab as analyte; heterogeneous ligand fit, component 1 (Ka1; believed occluded, weak interaction)
T1 construct: also called TGFb2; TGFB2
T1 sequence: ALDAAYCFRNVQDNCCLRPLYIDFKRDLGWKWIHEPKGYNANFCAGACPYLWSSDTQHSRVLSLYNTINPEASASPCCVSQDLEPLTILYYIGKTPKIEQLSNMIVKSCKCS
Experimental: (§1) Background subtraction binding curves were analysed using the Biacore™ T200 evaluation software (version 1.0) following standard procedures.

mature human TGF-beta 3 [2] = target: T2, mature human TGF-beta 3 (human, UniProt P10600 301-412); experiment: as above
T2 construct: also called TGFb3; TGFB3
T2 sequence: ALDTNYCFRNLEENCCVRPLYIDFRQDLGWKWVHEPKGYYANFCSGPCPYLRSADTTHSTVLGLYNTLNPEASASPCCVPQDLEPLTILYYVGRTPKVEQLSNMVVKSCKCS
Experimental: as §1

mature human TGF-beta 1 [3] = target: T3, mature human TGF-beta 1 (human, UniProt P01137 279-390); experiment: as above
T3 construct: Bought recombinant protein (Peprotech); also called TGFb1; TGFB1
T3 sequence (P01137 279-390 limits assumed): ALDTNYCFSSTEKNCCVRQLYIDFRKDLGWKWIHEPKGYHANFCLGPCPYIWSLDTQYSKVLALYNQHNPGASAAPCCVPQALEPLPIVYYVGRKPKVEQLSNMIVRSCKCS
Experimental: as §1

mature human TGF-beta 2 [4] = target: T1, mature human TGF-beta 2; experiment: SPR Biacore T200, TGF-beta amine-coupled (~150 RU), Fab as analyte; heterogeneous ligand fit, component 2 (ka2; believed non-occluded, representative)
Experimental: as §1

mature human TGF-beta 3 [5] = target: T2, mature human TGF-beta 3; experiment: as above
Experimental: as §1

mature human TGF-beta 1 [6] = target: T3, mature human TGF-beta 1; experiment: as above
Experimental: as §1

mature human TGF-beta 2 [7] = target: T1, mature human TGF-beta 2; experiment: SPR Biacore T200, TGF-beta amine-coupled (~150 RU), Fab as analyte; heterogeneous ligand fit, component 1 (KD1; believed occluded, weak interaction)
Experimental: as §1

mature human TGF-beta 3 [8] = target: T2, mature human TGF-beta 3; experiment: as above
Experimental: as §1

mature human TGF-beta 1 [9] = target: T3, mature human TGF-beta 1; experiment: as above
Experimental: as §1

mature human TGF-beta 2 [10] = target: T1, mature human TGF-beta 2; experiment: SPR Biacore T200, TGF-beta amine-coupled (~150 RU), Fab as analyte; heterogeneous ligand fit, component 1 (Kd1; believed occluded, weak interaction)
Experimental: as §1

mature human TGF-beta 3 [11] = target: T2, mature human TGF-beta 3; experiment: as above
Experimental: as §1

mature human TGF-beta 1 [12] = target: T3, mature human TGF-beta 1; experiment: as above
Experimental: as §1

mature human TGF-beta 2 [13] = target: T1, mature human TGF-beta 2; experiment: cell-based or functional assay
mature human TGF-beta 3 [14] = target: T2, mature human TGF-beta 3; experiment: cell-based or functional assay
mature human TGF-beta 1 [15] = target: T3, mature human TGF-beta 1; experiment: cell-based or functional assay
[16] = target: TGF-beta produced and activated by BxPC3 cells; experiment: cell-based or functional assay
mature human TGF-beta 2 [17] = target: T1, mature human TGF-beta 2; experiment: SPR Biacore T200, TGF-beta amine-coupled (~150 RU), Fab as analyte; heterogeneous ligand fit, component 2 (kd2; believed non-occluded, representative)
Experimental: as §1

mature human TGF-beta 3 [18] = target: T2, mature human TGF-beta 3; experiment: as above
Experimental: as §1

mature human TGF-beta 1 [19] = target: T3, mature human TGF-beta 1; experiment: as above
Experimental: as §1

mature human TGF-beta 2 [20] = target: T1, mature human TGF-beta 2; experiment: SPR Biacore T200, TGF-beta amine-coupled (~150 RU), Fab as analyte; heterogeneous ligand fit, component 2 (KD2; believed non-occluded, representative)
Experimental: as §1

mature human TGF-beta 3 [21] = target: T2, mature human TGF-beta 3; experiment: as above
Experimental: as §1

mature human TGF-beta 1 [22] = target: T3, mature human TGF-beta 1; experiment: as above
Experimental: as §1

mature human TGF-beta 2 [23] = target: T1, mature human TGF-beta 2; experiment: X-ray crystal structure of the complex
[24] = target: TGF-beta produced and activated by BxPC3 cells; experiment: cell-based or functional assay; remark: listed apart in the source
mature human TGF-beta 2 [25] = target: T1, mature human TGF-beta 2; experiment: cell-based or functional assay; remark: listed apart in the source
mature human TGF-beta 3 [26] = target: T2, mature human TGF-beta 3; experiment: cell-based or functional assay; remark: listed apart in the source
mature human TGF-beta 1 [27] = target: T3, mature human TGF-beta 1; experiment: cell-based or functional assay; remark: listed apart in the source

- Geometric mean IC50, BxPC3 and HEK-Blue TGF-beta reporter gene co-culture assay [24]: 9.1 nM
- Geometric mean IC50, HEK-Blue TGF-beta reporter gene assay (mature human TGF-beta 2 [25]): 0.017 nM
- Geometric mean IC50, HEK-Blue TGF-beta reporter gene assay (mature human TGF-beta 3 [26]): 1.99 nM
- Geometric mean IC50, HEK-Blue TGF-beta reporter gene assay (mature human TGF-beta 1 [27]): 0.41 nM
B3: humanised antibody 4856 Fab graft gL3gH23 (Fab, V domains shown)
VH: EVQLVESGGGLVKPGGSLRLSCAASGFSLSSYDMSWVRQAPGKGLEWIGIIYGGSGSTWYASWAKGRFTISRDSAKNSVYLQMNSLRAEDTAVYYCARGRDAGAGGSRNAYSLWGQGTLVTVSS
VL: AYDMTQSPSTLSASVGDRVTITCQASESIYSGLAWYQQKPGKAPKLLIYAASDLASGVPSRFSGSGSGTEYTLTISSLQPDDFATYYCQQTWTDGGIDNPFGGGTKVEIKR

- Geometric mean IC50, BxPC3 and HEK-Blue TGF-beta reporter gene co-culture assay [24]: 3.77 nM
- Geometric mean IC50, HEK-Blue TGF-beta reporter gene assay (mature human TGF-beta 2 [25]): 0.016 nM
- Geometric mean IC50, HEK-Blue TGF-beta reporter gene assay (mature human TGF-beta 3 [26]): 1.95 nM
- Geometric mean IC50, HEK-Blue TGF-beta reporter gene assay (mature human TGF-beta 1 [27]): 0.255 nM
B4: humanised antibody 4856 Fab graft gL3gH29 (Fab, V domains shown)
VH: EVQLVESGGGLVKPGGSLRLSCAASGFSLSSYDMSWVRQAPGKGLEWIGIIYGGSGSTWYASWAKGRFTISRDSAKNSVYLQMNSLRAEDTAVYYCARGRDAGAGGSRDGYSLWGQGTLVTVSS
VL: AYDMTQSPSTLSASVGDRVTITCQASESIYSGLAWYQQKPGKAPKLLIYAASDLASGVPSRFSGSGSGTEYTLTISSLQPDDFATYYCQQTWTDGGIDNPFGGGTKVEIKR

Further lines, the binder ahead of its results:

B1: 4856 rabbit Fab (Fab, V domains shown)
VH: QSLEESGGRLVTPGTPLTLTCTASGFSLSSYDMSWVRQAPGKGLEWIGIIYGGSGSTWYASWAKGRFTMSKTSTTVDLKITSPTTEDMATYFCARGRDGGAGGSRNGYSLWGQGTLVTVSS
VL: AYDMTQTPASVEVAVGGTVTIKCQASESIYSGLAWYQQTPGQRPKLLIYAASDLASGVPSRFKGSGSGTEYTLTISGVECADAATYYCQQTWTDGGIDNPFGGGTEVVVKR
notes: Rabbit variable regions cloned into rabbit Fab no hinge (VH) and rabbit kappa (VL) vectors, expressed in Expi-293 cells; also called BSN.4856.rbFab
- kon (mature human TGF-beta 2 [1]): 38700 M⁻¹ s⁻¹
- kon (mature human TGF-beta 3 [2]): 63300 M⁻¹ s⁻¹
- kon (mature human TGF-beta 1 [3]): 50500 M⁻¹ s⁻¹
- kon (mature human TGF-beta 2 [4]): 632000 M⁻¹ s⁻¹
- kon (mature human TGF-beta 3 [5]): 873000 M⁻¹ s⁻¹
- kon (mature human TGF-beta 1 [6]): 455000 M⁻¹ s⁻¹
- Kd (mature human TGF-beta 2 [7]): 1.69 nM
- Kd (mature human TGF-beta 3 [8]): 12.4 nM
- Kd (mature human TGF-beta 1 [9]): 6.3 nM
- koff (mature human TGF-beta 2 [10]): 6.55e-05 s⁻¹
- koff (mature human TGF-beta 3 [11]): 0.000782 s⁻¹
- koff (mature human TGF-beta 1 [12]): 0.000318 s⁻¹
- Geomean IC50, HEK-Blue TGF-beta reporter gene assay (mature human TGF-beta 2 [13]): 0.3 unit unclear (column head says nM, but r10 gives the nM value in brackets) and 0.01 nM
- Geomean IC50, HEK-Blue TGF-beta reporter gene assay (mature human TGF-beta 3 [14]): 24.5 unit unclear (column head says nM, but r10 gives the nM value in brackets) and 0.54 nM
- Geomean IC50, HEK-Blue TGF-beta reporter gene assay (mature human TGF-beta 1 [15]): 1.77 unit unclear (column head says nM, but r10 gives the nM value in brackets) and 0.04 nM
- Geomean IC50, BxPC3-HEK-Blue TGF-beta reporter gene co-culture assay [16]: 3.7 nM
- koff (mature human TGF-beta 2 [17]): 0.000383 s⁻¹
- koff (mature human TGF-beta 3 [18]): 0.00144 s⁻¹
- koff (mature human TGF-beta 1 [19]): 5.08e-05 s⁻¹
- Kd (mature human TGF-beta 2 [20]): 0.606 nM
- Kd (mature human TGF-beta 3 [21]): 1.65 nM
- Kd (mature human TGF-beta 1 [22]): 0.112 nM

B2: scFv 4856 (scFv)
scFv: EVQLVESGGGLVKPGGSLRLSCAASGFSLSSYDMSWVRQAPGKCLEWIGIIYGGSGSTWYASWAKGRFTISRDSAKNSVYLQMNSLRAEDTAVYYCARGRDAGAGGSRNGYSLWGQGTLVTVSSGGGGSGGGGSGGGGSGGGGSAYDMTQSPSTLSASVGDRVTITCQASESIYSGLAWYQQKPGKAPKLLIYAASDLASGVPSRFSGSGSGTEYTLTISSLQPDDFATYYCQQTWTDGGIDNPFGCGTKVEIKRTENLYFQ
- binding result (mature human TGF-beta 2 [23]): binds

B5: humanised antibody 4856 Fab graft gL3gH20 (Fab, V domains shown)
VH: EVQLVESGGGLVKPGGSLRLSCAASGFSLSSYDMSWVRQAPGKGLEWISIIYGGSGSTWYASWAKGRFTMSKDSAKNSVYLQMNSLRAEDTAVYYCARGRDAGAGGSRNGYSLWGQGTLVTVSS
VL: AYDMTQSPSTLSASVGDRVTITCQASESIYSGLAWYQQKPGKAPKLLIYAASDLASGVPSRFSGSGSGTEYTLTISSLQPDDFATYYCQQTWTDGGIDNPFGGGTKVEIKR
- Geometric mean IC50, BxPC3 and HEK-Blue TGF-beta reporter gene co-culture assay [24]: 4.63 nM
- Geometric mean IC50, HEK-Blue TGF-beta reporter gene assay (mature human TGF-beta 2 [25]): 0.011 nM
- Geometric mean IC50, HEK-Blue TGF-beta reporter gene assay (mature human TGF-beta 3 [26]): 0.302 nM
- Geometric mean IC50, HEK-Blue TGF-beta reporter gene assay (mature human TGF-beta 1 [27]): 0.038 nM
